{"source": "patent US20200371101A1", "about": "(Regeneron, published 2020)", "key": {"[1]": {"biological_target": "T1, His-tagged IDO1 human recombinant protein (71182, BPS Biosciences) (human, UniProt P14902 2-403)", "T1 sequence (P14902 2-403 limits assumed)": "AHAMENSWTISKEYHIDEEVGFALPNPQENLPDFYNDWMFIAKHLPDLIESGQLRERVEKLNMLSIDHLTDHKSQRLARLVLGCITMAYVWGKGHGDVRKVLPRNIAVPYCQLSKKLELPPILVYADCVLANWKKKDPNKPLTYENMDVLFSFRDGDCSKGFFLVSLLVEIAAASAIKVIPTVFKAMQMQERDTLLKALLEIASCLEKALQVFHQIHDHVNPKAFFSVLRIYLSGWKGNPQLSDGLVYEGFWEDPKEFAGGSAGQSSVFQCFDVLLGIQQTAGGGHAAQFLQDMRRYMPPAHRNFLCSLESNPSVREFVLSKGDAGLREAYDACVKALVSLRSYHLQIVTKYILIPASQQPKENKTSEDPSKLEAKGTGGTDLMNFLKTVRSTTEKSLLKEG", "experiment": "cell-based or functional assay"}, "[2]": {"biological_target": "T1, His-tagged IDO1 human recombinant …", "experiment": "ELISA: biotinylated peptide on NeutrAvidin plate, 6xHis-tagged human IDO1 titrated", "protocol": "The plate was aspirated and then washed with Wash Buffer (0.05% (v/v) Tween-20 in PBS, 6×). His-tagged IDO1 human recombinant protein (71182, BPS Biosciences) was serially diluted in Wash Buffer (from 200 to 0 nM) and incubated in the designated microwells for 1 h at room temperature. […] (ab49746, Abcam) was prepared at 1:10,000 dilution and added to the microwells for 1 h at room temperature. The plate was aspirated and washed with Wash Buffer (5×). AttoPhos® AP Fluorescent Substrate System (S1000, Promega) was employed to develop the microwells. Using an excitation wavelength of 430 nm, fluorescent emission at 535 nm was recorded by Beckman Coulter DTX880 photometer."}, "[3]": {"biological_target": "T1, His-tagged IDO1 human recombinant …", "experiment": "ELISA: biotin-PEG3 macrocycle on NeutrAvidin plate, His-tagged human IDO1 titrated, AP-conjugated anti-6XHis antibody, fluorescence"}, "[4]": {"biological_target": "T1, His-tagged IDO1 human recombinant …", "experiment": "binding affinity, assay not named"}, "[5]": {"biological_target": "T1, His-tagged IDO1 human recombinant …", "experiment": "cell-based or functional assay", "remark": "listed apart in the source"}, "[6]": {"biological_target": "T1, His-tagged IDO1 human recombinant …", "experiment": "cell-based or functional assay", "remark": "listed apart in the source"}, "[7]": {"biological_target": "IDO1 in HeLa cells stimulated with IFNγ (UniProt P14902 1-403, limits assumed)", "sequence (P14902 whole entry)": "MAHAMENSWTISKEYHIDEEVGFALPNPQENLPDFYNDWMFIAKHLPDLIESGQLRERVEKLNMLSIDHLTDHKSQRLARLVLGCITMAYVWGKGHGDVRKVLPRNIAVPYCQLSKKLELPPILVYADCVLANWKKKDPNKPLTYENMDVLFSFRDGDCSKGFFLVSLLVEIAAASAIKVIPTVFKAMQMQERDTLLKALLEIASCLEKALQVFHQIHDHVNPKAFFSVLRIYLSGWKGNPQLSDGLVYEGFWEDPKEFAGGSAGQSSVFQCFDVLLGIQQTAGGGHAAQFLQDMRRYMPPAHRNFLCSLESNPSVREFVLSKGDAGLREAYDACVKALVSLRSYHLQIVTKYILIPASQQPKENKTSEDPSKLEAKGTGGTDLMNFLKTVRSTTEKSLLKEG", "experiment": "cell-based or functional assay"}}, "note": "Read-outs that look alike come from different tables or passages of the source. Bridge positions count the residues as written; N and C are the ends. Square brackets hold non-standard residues; d marks the D form. Primed or numbered codes have the meaning given here. Ends that are not written are not given here. * marks the point of attachment. Biotin = O=C1N[C@H]2[C@H](CS[C@H]2CCCCC(=O)*)N1; PEG6′ = PEG linker with 6 ethylene glycol units; PEG8′ = PEG linker with 8 ethylene glycol units; Trp(1-Me) = Cn1cc(C[C@H](N)C(=O)O)c2ccccc21; Phe(4-F) = N[C@@H](Cc1ccc(F)cc1)C(=O)O; Me‑Phe = methyl phenylalanine; PEG3′ = not defined here; Ph‑Tyr = phenyl tyrosine; Pra = C#CC[C@H](N)C(=O)O; Az4 = not defined here; Inh = not defined here; Me‑Val = methyl valine", "data": [{"binder": "Inh-GG[dW][dY][dV][dA][dY] (other, triazole (positions not given here); not fully specified (residue 2, C-terminus); printed as Deprotected-Inh-Gly2-wyvay; reading uncertain; also: IDO1 inhibitor Inh on the Gly2 linker, ring closed by triazole between flanking Pra and Az4)", "note": "[Deprotected-Inh-Gly2-wyvay]", "values": [{"measurement": "IC50, IDO1 inhibition assay", "setting": "[1]", "result": 1010, "unit": "nM"}]}, {"binder": "[Pra][Phe(4-F)][dN][Trp(1-Me)][Trp(1-Me)][dW]-Az4 (triazole N-C; reading uncertain; also: biotinylated for ELISA, site not given here, printed as (F-Phe)n(Me-Trp)(Me-Trp)w)", "note": "[(F-Phe)n(Me-Trp)(Me-Trp)w macrocycle]", "values": [{"measurement": "EC50", "setting": "[2]", "result": 100, "unit": "nM"}]}, {"binder": "{Biotin-PEG3′}-[dW]-[dW]-[Phe(4-F)] (triazole (positions not given here); also: triazole-cyclised)", "note": "[ww(F-Phe)]", "values": [{"measurement": "EC50", "setting": "[3]", "result": 96, "unit": "nM"}]}, {"binder": "[dW][Ph‑Tyr][Me‑Val]G[Me‑Phe] (not fully specified; printed as w(Ph-Tyr)(Me-Val)G(Me-Phe), Modified version of wyvay)", "note": "[w(Ph-Tyr)(Me-Val)G(Me-Phe)]", "values": [{"measurement": "EC50", "setting": "[4]", "result": 18, "unit": "nM"}]}, {"binder": "[Pra][dW][dY][dR][dY]-Az4 (other, triazole N-C; numbers in words are those of the source; reading uncertain; also: small molecule Inh joined via PEG4 linker, attachment point not given here)", "note": "[Inh-PEG4-wyry]", "values": [{"measurement": "IC50, IDO1 inhibition assay", "setting": "[5]", "result": 871, "unit": "nM"}]}, {"binder": "{Inh-PEG8′}-[Pra][dW][dY][dR][dY]-Az4 (other, triazole N-C; numbers in words are those of the source; reading uncertain; also: Inh joined through PEG8 linker, printed as Inh-PEG8-wyry)", "note": "[Inh-PEG8-wyry]", "values": [{"measurement": "IC50, IDO1 inhibition assay", "setting": "[5]", "result": 3740, "unit": "nM"}]}, {"binder": "{Inh-PEG6′}-[Pra][dW][dY][dR][dY]-Az4 (other, triazole N-C; numbers in words are those of the source; reading uncertain; also: Inh joined through PEG6 linker, printed as Inh-PEG6-wyry)", "note": "[Inh-PEG6-wyry]", "values": [{"measurement": "IC50, IDO1 inhibition assay", "setting": "[5]", "result": 338, "unit": "nM"}, {"measurement": "Inhibition Recombinant IDO1 IC50", "setting": "[6]", "result": 338, "unit": "nM"}, {"measurement": "% inhibition at 8 µM, HeLa", "setting": "[7]", "result": 47.8, "unit": "%"}]}]}
